The values that follow come from patent publication US11898183B2, “Programmed microorganisms to attenuate a disease” (priority 2020, dated 2024).

This series has as its system pathway specific substrates. In words: Enzyme functionality of pathway enzyme homologs and fusion constructs in lysed E. coli cell extracts, product by HPLC. To be noted: recombinant E. coli BL21 clone, lysed cell extract. The format is biochemical, E. coli BL21. An outline of the steps:
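Enzymes and fusion constructs were expressed in E. coli BL21 (pET28, T7 promoter) with 0.1 mM IPTG at 30 °C for ~20 h in M9 medium. Cleared freeze-thaw lysates were incubated with pathway-specific substrates. Products were quantified by HPLC relative to empty-plasmid lysates.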

B1: CYP719 (SEQ ID NO: 24) Papaver somniferum (protein, listed as Papaver somniferum)
chain: MIMSNLWILTLISTILAVFAAVLIIFRRRISASTTEWPVGPKTLPIIGNLHILGGTALHVVLHKLAEVYGSVMTIWIGSWKPVIIVSDFDRAWEVLVNKSSDYSAREMPEITKIGTANWRTISSSDSGPFWATLRKGLQSVALSPQHLASQTAHQERDIIKLIKNLKDEAASGMVKPLDHLKKATVRLISRLIYGQDFDDDKYVEDMHDVIEFLIRISGYAQLAEVFYYAKYLPGHKRAVTGAEEAKRRVIALVRPFLQSNPATNTYLHFLKSQLYPEEVIIFAIFEAYLLGVDSTSSTTAWALAFLIREPSVQEKLYQELKNFTANNNRTMLKVEDVNKLPYLQAVVKETMRMKPIAPLAIPHKACKDTSLMGKKVDKGTKVMVNIHALHHTEKVWKEPYKFIPERFLQKHDKAMEQSLLPFSAGMRICAGMELGKLQFSFSLANLVNAFKWSCVSDGVLPDMSDLLGFVLFMKTPLEARIVPRL
For B1, where the note is “substrate tested: Matairesinol”, the “Enzyme activity in terms of product formation (in %)” value (from here on “Enzyme activity in terms … (in %)”) is 76%.

B2: Secoisolariciresinol dehydrogenase (SDH) (SEQ ID NO: 22) Juglans regia (protein, listed as Juglans regia)
chain: MNGTSSLLAPIAKRLAGKVALITGGASGIGESTARLFAEQGAKVIIADVQDELGFSVSQDKSINGAISYIHCDVTSESDVQNAVNTAVSKHGKLDIMFNTAGCTGQNKASILDHEQKDYKTVFDVNVLGSFLGAKHAAKVMIPVKRGTILFTASCVTESHGLASHSYTASKHAVVGLTKNLCVELGQYGIRVNCISPYGAATPLFLKGMGIDKKEKAEEILSSAANLKGPVLEAGDLAEAALFLASEESKYVSVLNLVVDGGYSATNVAFTETIQKFFT
Turning to B2, where the note is “substrate tested: Secoisolariciresinol”, the “Enzyme activity in terms … (in %)” value stood at 99%.

B3: Caffeoyl CoA O-methyltransferase (CCoAOMT) (SEQ ID NO: 16) Eleocharis dulcis (protein)
chain: MSTTTTTQTKTETQSQTGAQNGAEQQTRHSEVGHKSLLQSDALYQYILETSVYPREPECMKELRDITAKHPWNLMTTSADEGQFLNLLLKLIGAKKTMEIGVYTGYSLLATALAIPEDGTILAMDINRENYELGLPVIEKAGVAHKIDFREGPALPVLDQLIEDPANLGSFDFIFVDADKDNYLNYHKRLIELVKVGGVIGYDNTLWNGSVVLPADAPMRKYIRYYRDFVLELNKALAADPRIEISQLPVGDGITLCRRVK
modifications: Depicts the amino acid sequence of enzyme Caffeoyl CoA O-methyltransferase (CCoAOMT)
With B3, the “Enzyme activity in terms … (in %)” value (substrate tested: Caffeoyl coA) worked out at 61%.

B4: Caffeoyl CoA O-methyltransferase (CCoAOMT) (SEQ ID NO: 18) Chamaecyparis formosensis (protein)
chain: MATVEATKDSTQQVSRHQEVGHKSLLQSDALYQYILETSVYPREPEPMRELREITAKHPWNLMTTSADEGQFLHLLLKLINAKNTMEIGVYTGYSLLSTALALPDDGKILAMDINRENYELGLPVIQKAGVAHKIDFREGPALPVLDQMLENKEMHGSFDFIFVDADKDNYLNYHKRLIDLVKIGGVIGYDNTLWNGSVVAPPDAPMRKYVRYYRDFVIELNKALAADPRIEISQIPVGDGITLCRRII
modifications: Depicts the amino acid sequence of Caffeoyl CoA O-methyltransferase (CCoAOMT) of Chamaecyparis formosensis
With B4, the “Enzyme activity in terms … (in %)” value (substrate tested: Caffeoyl coA) was 95%.

B5: Bifunctional pinoresinol-lariciresinol reductase (DIRPLR) (SEQ ID NO: 20) Linum usitatissimum (protein, listed as Linum usitatissimum)
chain: MGRCRVLVVGGTGYIGKRIVKASIEHGHDTYVLKRPETGLDIEKFQLLLSFKKQGAHLVEASFSDHESLVRAVKLVDVVICTVSGAHSRSLLLQLKLVEAIKEAGNVKRFIPSEFGMDPARMGDALEPGRETFDLKMVVRKAIEDANIPHTYISANCFGGYFVGNLSQLGPLTPPSDKVTIYGDGNVKVVYMDEDDVATYTIMTIEDDRTLNKTMYFRPPENVITHRQLVETWEKLSGNQLQKTELSSQDFLALMEGKDVAEQIVIGHLYHIYYEGCLTNFDIDADQDQVEASSLYPEVEYTRMKDYLMIYL
Consider B5, for which the “Enzyme activity in terms … (in %)” value (substrate tested: Coniferyl alcohol) is 98%.

B6: hydroxycinnamoyl-CoA: quinate hydroxycinnamoyltransferase p-coumaroyl quinate 3′-hydroxylase fusion (HCTC3H) (SEQ ID NO: 14) Coffea canephora (protein, listed as Coffea canephora)
chain: MKIEVKESTMVRPAQETPGRNLWNSNVDLVVPNFHTPSVYFYRPTGSSNFFDAKVLKDALSRALVPFYPMAGRLKRDEDGRIEIECNGEGVLFVEAESDGVVDDFGDFAPTLELRRLIPAVDYSQGISSYALLVLQVTYFKCGGVSLGVGMRHHAADGFSGLHFINSWSDMARGLDVTLPPFIDRTLLRARDPPQPQFQHIEYQPPPALKVSPQTAKSDSVPETAVSIFKLTREQISALKAKSKEDGNTISYSSYEMLAGHVWRCACKARGLEVDQGTKLYIATDGRARLRPSLPPGYFGNVIFTATPIAIAGDLEFKPVWYAASKIHDALARMDNDYLRSALDYLELQPDLKALVRGAHTFKCPNLGITSWVRLPIHDADFGWGRPIFMGPGGIAYEGLSFILPSPTNDGSMSVAISLQGEHMKLFQSFLYDIGGGGSGGGGSGGGGSMALLLILLPVAFIFLAYSLYERLRFKLPPGPRPKPVVGNIYDIKPVRFKCYAEWSKLYGPIFSVYFGSQLNTVVNTAELAKEVLKDNDQQLADRYRSRPSARMSRNGQDLIWADYGPHYVKVRKLCNLELFTPKRLEGLRPLREDEVTAMVDSIFKDCTKPENKGKSLLMRNYLGSVAFNNITRLTFGKRFMNSEGVVDEQGQEFKGIVSNGIRIGAKLSVADHIPWLRWMFVGENEDLDKHNARRDKLTRMIMEEHTLARQKSGNTKQHFVDALLTLQKQYELSDDTVIGLLWDMITAGMDTTTISVEWAMAELVKNPRVQQKAQEELDRVIGSDRIMTEADFAKLPYLQCVAKEALRLHPPTPLMLPHRANANVKIGGYDIPKGSIVHVNVWAIARDPAAWKNPLEFRPERFLEEDVDIKGHDYRLLPFGAGRRICPGAQLALNLVTSMLGHLLHHFTWSPPPGVRPEEIDLEESPGTVTYMRTPLQAVATPRLPAHLYNRVPVE
On to B6, for which the “Enzyme activity in terms … (in %)” value (substrate tested: Coumaroyl coA) turned out to be 89%.

B7: CYP719 Coptis japonica (protein, UniProt Q948Y1 1-491, looked up)
(S)-canadine synthase: MEMNPLLVCATVAIVFATTTIIRILFSSSSLPQMKWPSGPRKLPIIGNLHQLGDDVLHVALAKLAKVHGSVMTIWIGSWRPVIVISDIEKAWEVLVNKSADYGARDMPEITKIASASWHTISTSDAGSFWQNVRKGLQSGAMGPLNVAAQNQYQERDMKRLIKAMSDEAANNNGIVKPLDHIKKNTVRLLTRLIFGQAFDDNKFIESMHYEIEDIIRISGYARLAEAFYYAKYLPSHKKAEREAFLVKCRVEELVRPLLSSKPPTNSYLYFLLSQNFEEEVIIFCIFELYLLGVDSTSSTTTWALAYLIREQGAQEKLYQDIRMTLGDVDLVKIEDVNKLKYLQGVVKETMRMKPIAPLAIPHKTAKETTLMGTKVAKGTRIMVNLYALHHNQNIWPDPYKFMPERFLEGETGTAYNKAMEQSFLPFSAGMRICAGMDLGKLQFAFALANLVNAFKWSCVEEGKLPDMGEELSFVLLMKTPLEARIAGRNV
Turning to B7, the “Enzyme activity in terms … (in %)” value (substrate tested: Matairesinol) was 0%.
